Test results as given in the Immune Epitope Database (IEDB).
Blank lines part the entries; values can stand above or below the sequence they belong to.

Experiments:
HLA-B*51:01 = experiment: IEDB peptide-MHC binding, purified MHC/competitive/radioactivity; filed as Kd, often an IC50 or EC50 that approximates it; ≥ and ≤ were set here for values at or beyond the usual limits of such assays
HLA-B*15:01 [1] = experiment: as above
HLA-A*24:02 [2] = experiment: IEDB peptide-MHC binding, purified MHC/competitive/fluorescence; ≥ and ≤ were set here for values at or beyond the usual limits of such assays
HLA-A*32:01 = experiment: IEDB peptide-MHC binding, purified MHC/competitive/radioactivity; filed as Kd, often an IC50 or EC50 that approximates it; ≥ and ≤ were set here for values at or beyond the usual limits of such assays
HLA-A*01:01 [3] = experiment: as above
HLA-A*26:01 [4] = experiment: as above
HLA-A*23:01 = experiment: as above; details: source organism: Mammarenavirus oliverosense
HLA-A*24:02 [5] = experiment: as above; details: source organism: Mammarenavirus oliverosense
HLA-A*30:01 = experiment: as above
HLA-A*68:01 = experiment: as above; details: source organism: Dengue virus 1 Brazil/97-11/1997
HLA-B*07:02 [6] = experiment: as above
HLA-A*02:01 [7] = experiment: IEDB peptide-MHC binding, purified MHC/competitive/fluorescence; ≥ and ≤ were set here for values at or beyond the usual limits of such assays
HLA-A*29:02 = experiment: IEDB peptide-MHC binding, purified MHC/competitive/radioactivity; filed as Kd, often an IC50 or EC50 that approximates it; ≥ and ≤ were set here for values at or beyond the usual limits of such assays
HLA-A*30:02 = experiment: as above
HLA-B*15:01 [8] = experiment: IEDB peptide-MHC binding, purified MHC/competitive/fluorescence; filed as Kd, often an IC50 or EC50 that approximates it; ≥ and ≤ were set here for values at or beyond the usual limits of such assays; details: source organism: Bacillus cereus G9241
HLA-B*35:01 = experiment: IEDB peptide-MHC binding, purified MHC/competitive/radioactivity; filed as Kd, often an IC50 or EC50 that approximates it; ≥ and ≤ were set here for values at or beyond the usual limits of such assays; details: source organism: Dengue virus 2 Peru/IQT2913/1996
HLA-A*11:01 [9] = experiment: IEDB peptide-MHC binding, purified MHC/competitive/fluorescence; ≥ and ≤ were set here for values at or beyond the usual limits of such assays; details: source organism: West Nile virus
HLA-A*01:01 [10] = experiment: IEDB peptide-MHC binding, purified MHC/direct/fluorescence; filed as Kd, often an IC50 or EC50 that approximates it; ≥ and ≤ were set here for values at or beyond the usual limits of such assays; details: source organism: Pseudomonas aeruginosa
HLA-A*02:01 [11] = experiment: as above; details: source organism: Pseudomonas aeruginosa
HLA-A*03:01 = experiment: as above; details: source organism: Pseudomonas aeruginosa
HLA-A*11:01 [12] = experiment: as above; details: source organism: Pseudomonas aeruginosa
HLA-A*26:01 [13] = experiment: as above; details: source organism: Pseudomonas aeruginosa
HLA-A*31:01 = experiment: as above; details: source organism: Pseudomonas aeruginosa
HLA-A*69:01 = experiment: as above; details: source organism: Pseudomonas aeruginosa
HLA-B*07:02 [14] = experiment: as above; details: source organism: Pseudomonas aeruginosa
HLA-B*08:01 = experiment: as above; details: source organism: Pseudomonas aeruginosa
HLA-B*15:01 [15] = experiment: as above; details: source organism: Pseudomonas aeruginosa
HLA-B*27:05 = experiment: as above; details: source organism: Pseudomonas aeruginosa
HLA-B*40:01 = experiment: as above; details: source organism: Pseudomonas aeruginosa
HLA-B*58:01 = experiment: as above; details: source organism: Pseudomonas aeruginosa
[16] = source organism: Dengue virus 1 Brazil/97-11/1997
[17] = source organism: Vaccinia virus WR
[18] = source organism: Dengue virus 3 Martinique/1243/1999
[19] = source organism: Vaccinia virus
[20] = source organism: Mammarenavirus brazilense
[21] = source organism: Dengue virus 2 Jamaica/1409/1983
[22] = source organism: Sudan ebolavirus
[23] = source organism: Lymphocytic choriomeningitis virus (strain Armstrong)
[24] = source organism: Zaire ebolavirus

Sequence: LALGCYSQV
Kd (HLA-B*51:01; [16]): 567 nM

Sequence: NMRDLIVTF
Kd (HLA-B*15:01 [1]; [17]): 8.26 nM

Sequence: DYGLVSKFM
IC50 (HLA-A*24:02 [2]; [17]): 559 nM

Sequence: RIFFGKTSI
Kd (HLA-A*32:01; [17]): 0.00132 µM

Sequence: AINFKIFNI
Kd (HLA-A*32:01; [17]): 0.0221 µM

Sequence: IVINPFVKF
Kd (HLA-A*32:01; [17]): 3.26 µM

Sequence: MGLDKGWPI
Kd (HLA-B*51:01; [16]): ≥ 44700 nM

Sequence: KTKLTDWDFV
Kd (HLA-A*32:01; source organism: Dengue virus 4 Philippines/H241/1956): 15.6 µM

Sequence: FSRENSLSGV
Kd (HLA-B*51:01; [16]): 7580 nM

Sequence: VTAETQNSSF
Kd (HLA-A*01:01 [3]; [18]): 16200 nM
Kd (HLA-A*26:01 [4]; [18]): ≥ 20.4 µM
Kd (HLA-B*15:01 [1]; [18]): 25.9 nM

Sequence: LYPNVCIFG
IC50 (HLA-A*24:02 [2]; [19]): 71.6 nM

Sequence: ICLSGEGWPY
Kd (HLA-A*23:01): ≥ 56.8 µM
Kd (HLA-A*24:02 [5]): ≥ 70.3 µM
Kd (HLA-A*30:01; [20]): 4.29 µM
Kd (HLA-A*32:01; [20]): ≥ 21.2 µM

Sequence: EVMRSRWSRK
Kd (HLA-A*32:01; [16]): ≥ 50.1 µM
Kd (HLA-A*68:01): 8.94 nM

Sequence: SPSKLASAIQ
Kd (HLA-B*07:02 [6]; [21]): 436 nM

Sequence: LMILLTGGAM
Kd (HLA-B*15:01 [1]; [18]): 2.91 nM

Sequence: AGVLARWGTF
Kd (HLA-A*32:01; [18]): 8.42 µM

Sequence: IGIEILNTI
IC50 (HLA-A*02:01 [7]; [17]): 0.701 µM
IC50 (HLA-A*24:02 [2]; [17]): 131 nM

Sequence: YLEYEIENF
IC50 (HLA-A*02:01 [7]; [22]): 42.6 µM
IC50 (HLA-A*24:02 [2]; [22]): 17300 nM

Sequence: CSANNSHHY
Kd (HLA-A*01:01 [3]; [23]): 10.2 nM
Kd (HLA-A*26:01 [4]; [23]): 8.05 µM
Kd (HLA-A*29:02; [23]): 522 nM
Kd (HLA-A*30:01; [23]): ≥ 43.7 µM
Kd (HLA-A*30:02; [23]): 10.6 nM
Kd (HLA-A*32:01; [23]): ≥ 49.8 µM

Sequence: FLHNYILYA
Kd (HLA-B*15:01 [1]; [17]): 1560 nM

Sequence: NLSGVNNLE
IC50 (HLA-A*02:01 [7]; [24]): ≥ 227 µM
IC50 (HLA-A*24:02 [2]; [24]): ≥ 86400 nM

Sequence: KPEGKVIDL
Kd (HLA-B*07:02 [6]; [16]): 496 nM

Sequence: VQKEGVFHTM
Kd (HLA-B*15:01 [1]; [18]): 24.2 nM

Sequence: VISDLFPSF
Kd (HLA-B*15:01 [1]; [17]): 210 nM

Sequence: ITLHLACGF
Kd (HLA-A*32:01; [17]): 0.00141 µM

Sequence: IEVKYSPMY
Kd (HLA-B*15:01 [8]): 221 nM

Sequence: KIKHKGMSF
Kd (HLA-B*15:01 [1]; [17]): 47.2 nM

Sequence: STAPSSPPPY
Kd (HLA-A*01:01 [3]; [23]): 34 nM
Kd (HLA-A*26:01 [4]; [23]): 8.26 µM
Kd (HLA-A*29:02; [23]): 2690 nM
Kd (HLA-A*30:01; [23]): 0.344 µM
Kd (HLA-A*30:02; [23]): 1520 nM
Kd (HLA-A*32:01; [23]): 9.4 µM

Sequence: KVIQLSRKTF
Kd (HLA-B*15:01 [1]; [21]): 49.5 nM

Sequence: AQKRAAAGIM
Kd (HLA-B*15:01 [1]; [21]): 68.7 nM

Sequence: DFFSSHPLR
IC50 (HLA-A*24:02 [2]; [24]): ≥ 124000 nM

Sequence: LPVWLAYKVA
Kd (HLA-B*35:01): 5.09 µM

Sequence: LFRFFECTF
Kd (HLA-B*15:01 [1]; [17]): 3030 nM

Sequence: RVLSLIGLK
IC50 (HLA-A*11:01 [9]): 334 nM

Sequence: IQPFLALGF
Kd (HLA-B*15:01 [1]; [18]): 16.5 nM

Sequence: KFPYEGGKV
IC50 (HLA-A*02:01 [7]; [19]): ≥ 96.1 µM
IC50 (HLA-A*24:02 [2]; [19]): ≥ 130000 nM

Sequence: SLTEEFYHSY
Kd (HLA-A*01:01 [3]; [20]): 129 nM
Kd (HLA-A*26:01 [4]; [20]): 3.41 µM
Kd (HLA-A*29:02; [20]): 1440 nM
Kd (HLA-A*30:01; [20]): ≥ 58.5 µM
Kd (HLA-A*30:02; [20]): 225 nM
Kd (HLA-A*32:01; [20]): ≥ 26.1 µM

Sequence: IALDLVTEI
Kd (HLA-B*51:01; [18]): 1.52 nM

Sequence: TPSMTMRCVG
Kd (HLA-B*07:02 [6]; [18]): 48 nM

Kd (HLA-A*01:01 [10]): ≥ 20 µM
Kd (HLA-A*02:01 [11]): ≥ 20 µM
Kd (HLA-A*03:01): ≥ 20 µM
Kd (HLA-A*11:01 [12]): ≥ 20 µM
Kd (HLA-A*26:01 [13]): ≥ 20 µM
Kd (HLA-A*31:01): ≥ 20 µM
Kd (HLA-A*69:01): ≥ 20 µM
Kd (HLA-B*07:02 [14]): ≥ 20 µM
Kd (HLA-B*08:01): ≥ 20 µM
Kd (HLA-B*15:01 [15]): ≥ 20 µM
Kd (HLA-B*27:05): ≥ 20 µM
Kd (HLA-B*40:01): 2590 nM
Kd (HLA-B*58:01): ≥ 20 µM
Sequence: GEDDDMLPW
